Measurements taken from article doi:10.1101/2025.01.09.632146.

Molecular target: AtSAR1c-GFP (Arabidopsis thaliana) (UniProt O04834)
Experiment: co-IP

Sequence of UniProt O04834 (O04834 whole entry): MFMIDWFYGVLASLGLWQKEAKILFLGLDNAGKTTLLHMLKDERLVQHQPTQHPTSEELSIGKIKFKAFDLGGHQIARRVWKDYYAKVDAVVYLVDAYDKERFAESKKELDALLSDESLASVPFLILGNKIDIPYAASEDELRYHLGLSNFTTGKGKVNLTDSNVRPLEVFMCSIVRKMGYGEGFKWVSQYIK

endogenous AtPHF1 (from UniProt Q8GYE0 1-398) (natural protein)
fold co-immunoprecipitated against AtSAR1b[H74L]-CFP: 4 fold
fold co-immunoprecipitated against GFP: 3 fold
fold co-immunoprecipitated against GFP, normalised, Pi deficiency: 30 fold
